In patent EP3443010B1:
Where “and” joins values, the source holds several entries; their conditions need not be identical. Equal entries are not always repeated.

Target: recombinant hSIRPa (Sino Biologicals, reference 10975-H08H) (human) (UniProt P78324)
Assay: ELISA, hSIRPa (Sino 10975-H08H) coated at 0.5 ug/ml, anti-mouse Fc detection

Chain of recombinant hSIRPa (Sino Biologicals, reference 10975-H08H) (human) (P78324 other isoform, or with tags, fused parts or gaps H08H H08H): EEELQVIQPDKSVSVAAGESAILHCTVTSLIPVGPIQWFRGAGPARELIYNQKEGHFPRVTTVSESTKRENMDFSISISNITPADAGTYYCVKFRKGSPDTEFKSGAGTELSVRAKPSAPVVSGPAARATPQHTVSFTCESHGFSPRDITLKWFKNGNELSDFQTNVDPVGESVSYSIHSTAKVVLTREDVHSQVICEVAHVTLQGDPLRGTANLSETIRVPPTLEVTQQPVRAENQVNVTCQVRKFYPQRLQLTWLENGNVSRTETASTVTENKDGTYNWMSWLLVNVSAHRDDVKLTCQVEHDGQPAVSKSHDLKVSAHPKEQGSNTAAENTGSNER

Substance: SE5A5 (antibody)
- EC50: 0.16 nM and 0.024 µg/mL
